Test results from US7998940B2, “Aptamers to von Willebrand factor and their use as thrombotic disease therapeutics” (Archemix Corp., priority 2004, dated 2011).

Key:
[1] = tested on: full length human vWF; experiment: 3-point dot blot screen, full length human vWF; format: binding; details: 20 nM full length human vWF, ratio of fraction of aptamer bound with target protein to fraction bound without protein
Description: When a significant positive ratio of binding of DNA in the presence of human or rabbit vWF A1 domain versus in the absence of protein was seen, the pools were cloned using the TOPO TA cloning kit (Invitrogen Cat. #45-0641, Carlsbad, Calif.) according to the manufacturer's instructions. Round 7 and 11 pool templates were cloned and sequenced (218 total sequences), producing 146 unique clones within 12 sequence families of which sequences from six families show vWF target binding activity. All unique clones were assayed twice in a 3-point dot blot screen (no protein target control, 20 nM full length human vWF (Calbiochem Cat. #681300, La Jolla, Calif.), or 20 nM rabbit vWF A1 domain. The data is presented in the third and fourth columns of Table 17 below as the ratio of the fraction of the aptamer bound to the nitrocellulose in the presence of the target protein to the fraction of aptamer bound in the absence of the target protein.

[2] = tested on: rabbit vWF A1 domain (SEQ ID NO 6); experiment: 3-point dot blot screen, rabbit vWF A1 domain; format: binding; details: 3-point dot blot screen, 20 nM rabbit vWF A1 domain; ratio of fraction of aptamer bound with target protein to fraction bound without protein
Outline: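 Rabbit vWF A1 domain binding was screened by dot blot using three conditions: no target protein, human vWF, and rabbit vWF A1 domain at 100 nM (20 nM in the screen run twice). Radiolabeled aptamer bound to nitrocellulose was quantified, and results are expressed as the ratio of bound fraction with protein to bound fraction without protein.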

Sequence of rabbit vWF A1 domain (SEQ ID NO 6) (as listed by the source): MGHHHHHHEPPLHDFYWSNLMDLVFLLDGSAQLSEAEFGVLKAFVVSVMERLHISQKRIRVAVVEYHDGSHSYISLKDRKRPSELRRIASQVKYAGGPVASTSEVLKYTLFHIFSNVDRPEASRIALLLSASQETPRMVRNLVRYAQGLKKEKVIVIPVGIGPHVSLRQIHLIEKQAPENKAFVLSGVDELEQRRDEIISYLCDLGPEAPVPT

Row | Molecule | Screen- Human/No Protein [1] | Screen Rabbit/No Protein [2]
1 | AMX237.F9: DNA SELEX 2 aptamer clone (nucleic acid, DNA, backbone not given here, DNA SELEX 2 aptamer clone) DNA: CTACCTACGATCTGACTAGCTTGGTAGCGATTCTGTGGAGCTGCGGTTTGGTCGACGTCAGCTTACTCTCATGTAGTTCC | 2.21 | 2.31
2 | AMX237.C9: DNA SELEX 2 aptamer clone (nucleic acid, DNA, backbone not given here, DNA SELEX 2 aptamer clone) DNA: CTACCTACGATCTGACTAGCTTGGTAGTGACTTTGTGGAGCTGCGGTTTGGTCGACGTCAGCTTACTCTCATGTAGTTCC | 2.05 | 2.19
3 | AMX237.F12: DNA SELEX 2 aptamer clone (nucleic acid, DNA, backbone not given here, DNA SELEX 2 aptamer clone) DNA: CTACCTACGATCTGACTAGCTTGGTAGCGATTTTGTGGAGCTGCGGTTTGGTCGACGTCAGCTTACTCTCATGTAGTTCC | 1.95 | 2.08
4 | AMX237.F10: DNA SELEX 2 aptamer clone (nucleic acid, DNA, backbone not given here, DNA SELEX 2 aptamer clone) DNA: CTACCTACGATCTGACTAGCGTGCAGTGCCCATTCCAGGCCGTGCGGTATCCTCCGTCACGCTTACTCTCATGTAGTTCC | 2.90 | 2.90
5 | AMX237.C5: DNA SELEX 2 aptamer clone (nucleic acid, DNA, backbone not given here, DNA SELEX 2 aptamer clone) DNA: CTACCTACGATCTGACTAGCGTGCAGTGCCTATCTCAGGCCGTGCGGTATCCTCCGTCACGCTTACTCTCATGTAGTTCC | 2.55 | 2.36
6 | AMX236.H2: DNA SELEX 2 aptamer clone (nucleic acid, DNA, backbone not given here, DNA SELEX 2 aptamer clone) CTACCTACGATCTGACTAGCGTGCAGTGCCTATCCCAGGCCGTGCGGTAGCCTCCGTCACGCTTACTCTCATGTAGTTCC | 2.12 | 2.06
7 | AMX238.E7: DNA SELEX 2 aptamer clone (nucleic acid, DNA, backbone not given here, DNA SELEX 2 aptamer clone) DNA: CTACCTACGATCTGACTAGCGTGCAGTGCCTATTTTAGGCCGTGCGGTGCCTCCGTCACGCTTACTCTCATGTAGTTCC | 3.02 | 2.83
8 | AMX237.C11: DNA SELEX 2 aptamer clone (nucleic acid, DNA, backbone not given here, DNA SELEX 2 aptamer clone) DNA: CTACCTACGATCTGACTAGCGTGCAGTGCCTATTCTAGGCCGTGCGGTGCCTCCGTCATGCTTACTCTCATGTAGTTCC | 2.04 | 1.95
9 | AMX238.F2: DNA SELEX 2 aptamer clone (nucleic acid, DNA, backbone not given here, DNA SELEX 2 aptamer clone) DNA: CTACCTACGATCTGACTAGCATGCAGTGCCCATTCTAGGCCGTGCGGTGCCTCCGTCATGCTTACTCTCATGTAGTTCC | 2.84 | 2.76
10 | AMX238.F3: DNA SELEX 2 aptamer clone (nucleic acid, DNA, backbone not given here, DNA SELEX 2 aptamer clone) DNA: CTACCTACGATCTGACTAGCGTGCAGTGCCTATTTTAGGTCGTGCGGGGCCTCCGTCACGCTTACTCTCATGTAGTTCC | 2.83 | 2.72
11 | AMX237.E2: DNA SELEX 2 aptamer clone (nucleic acid, DNA, backbone not given here, DNA SELEX 2 aptamer clone) DNA: CTACCTACGATCTGACTAGCTCCAGTGTTTCATCTAATAACCGTGCGGTGCCTCCGTGAGCTTACTCTCATGTAGTTCC | 1.61 | 1.61
12 | AMX238.D8: DNA SELEX 2 aptamer clone (nucleic acid, DNA, backbone not given here, DNA SELEX 2 aptamer clone) DNA: CTACCTACGATCTGACTAGCTCCAGTGTTTTATCCAACAACCGTGCGGTGCCTCCGTGAGCTTACTCTCATGTAGTTCC | 2.02 | 1.97
13 | AMX238.D5: DNA SELEX 2 aptamer clone (nucleic acid, DNA, backbone not given here, DNA SELEX 2 aptamer clone) DNA: CTACCTACGATCTGACTAGCTCCAGTGTTTTATTCAATAACCGTGCGGTGTCTCCGTGAGCTTACTCTCATGTAGTTCC | 1.46 | 1.40
14 | AMX237.E9: DNA SELEX 2 aptamer clone (nucleic acid, DNA, backbone not given here, DNA SELEX 2 aptamer clone) DNA: CTACCTACGATCTGACTAGCTCCAGTGTTTTGTCTAATAACCGTGCGGTGCCTCCGTGAGCTTACTCTCATGTAGTTCC | 2.13 | 2.06
15 | AMX237.B4: DNA SELEX 2 aptamer clone (nucleic acid, DNA, backbone not given here, DNA SELEX 2 aptamer clone) DNA: CTACCTACGATCTGACTAGCTCCAGTGTTTCATCCAATAACCGTGCGGTGCTTCCGTGAGCTTACTCTCATGTAGTTCC | 1.42 | 1.38
16 | AMX238.F7: DNA SELEX 2 aptamer clone (nucleic acid, DNA, backbone not given here, DNA SELEX 2 aptamer clone) DNA: CTACCTACGATCTGACTAGCAAGGGGATTGGCTCCGGGTCTGGCGTGCTTGGCATCTTTGGCTTACTCTCATGTAGTTCC | 1.20 | 1.88
17 | AMX236.G1: DNA SELEX 2 aptamer clone (nucleic acid, DNA, backbone not given here, DNA SELEX 2 aptamer clone) CTACCTACGATCTGACTAGCCTCAGATTGACTCCGGCTGACTTGTTTTAATCTTCTGAGTGCTTACTCTCATGTAGTTCC | 1.47 | 1.51
18 | AMX237.D11: DNA SELEX 2 aptamer clone (nucleic acid, DNA, backbone not given here, DNA SELEX 2 aptamer clone) DNA: CTACCTACGATCTGACTAGCTCCAGTGTTTTATATAATAACCGTGCGGTGCCTCCGTGATGCTTACTCTCATGTAGTTCC | 1.16 | 1.17
19 | AMX238.G6: DNA SELEX 2 aptamer clone (nucleic acid, DNA, backbone not given here, DNA SELEX 2 aptamer clone) DNA: CTACCTACGATCTGACTAGCTCCAGTGTTTTATCCAATAACCGTGCGGGGCCTCCGTGATGCTTACTCTCATGTAGTTCC | 1.25 | 1.22
20 | AMX237.C7: DNA SELEX 2 aptamer clone (nucleic acid, DNA, backbone not given here, DNA SELEX 2 aptamer clone) DNA: CTACCTACGATCTGACTAGCTCCAGTGTTTTATTCAATAACCGTGCGGTGCCTCCGTGATGCTTACTCTCATGTAGTTCC | 1.15 | 1.16
21 | AMX237.F6: DNA SELEX 2 aptamer clone (nucleic acid, DNA, backbone not given here, DNA SELEX 2 aptamer clone) DNA: CTACCTACGATCTGACTAGCTCCAGTGTTTTATCTAATAACCGTGCGGTGCCTCCGTGATGCTTACTCTCATGTAGTTCC | 1.20 | 1.21
22 | AMX236.F8: DNA SELEX 2 aptamer clone (nucleic acid, DNA, backbone not given here, DNA SELEX 2 aptamer clone) CTACCTACGATCTGACTAGCTCCAGTGTTTTATCCAATAACCGTGCGGTGCCTCCGTGATGCTTACTCTCATGTAGTTCC | 1.14 | 1.13
